Patent US20200317768A1 (published 2020)
Substitutions are numbered along the chain they refer to. Numbers in names are those of the source.

How the values were obtained:
[1] = target: T1, cynomolgus monkey FcγRIIa3 extracellular domain, His-tagged (cynomolgus monkey); test: SPR, antibody captured, FcgR analyte
T1 construct: also called cyno FcγRIIa3; cynoFcgRIIa3
T1 chain: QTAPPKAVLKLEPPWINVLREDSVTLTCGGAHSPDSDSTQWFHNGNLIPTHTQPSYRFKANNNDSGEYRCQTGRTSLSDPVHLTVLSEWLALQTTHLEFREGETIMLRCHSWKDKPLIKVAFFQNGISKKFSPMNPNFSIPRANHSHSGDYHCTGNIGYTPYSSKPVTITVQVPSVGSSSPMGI

[2] = target: T2, cynomolgus monkey FcγRIIa1 extracellular domain, C-terminal His-tag (cynomolgus monkey); test: SPR (Biacore); KD of SG1 / KD of variant;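 note: relative to parent M103205H795-SG1 carrying the SG1 human heavy chain constant region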
T2 construct: also called cyno FcγRIIa1; cynoFcgRIIa1
T2 chain: T1 chain with T95P, A121T, S128A, P133H, N135D
Procedure: (§1) The kinetic analysis of interactions between these antibodies and FcγR was carried out using BIACORE® T200 or BIACORE® 4000 (GE Healthcare). HBS-EP+ (GE Healthcare) was used as the running buffer, and the measurement temperature was set to 25° C. A chip produced by immobilizing Protein A. Protein A/G or mouse anti-human IgG kappa light chain (BD Biosciences) onto a Series S Sensor Chip CM4 or CM5 (GE Healthcare) by the amine-coupling method was used. […] After the measurement, the antibody captured on the chip was washed off by allowing reaction with 10 mM glycine-HCl, pH1.5 and 25 mM NaOH so that the chip was regenerated and used repeatedly. The sensorgrams obtained as measurement results were analyzed by the 1:1 Langmuir binding model using the BIACORE® Evaluation Software to calculate the binding rate constant ka (L/mol/s) and dissociation rate constant kd (l/s), and the dissociation constant KD (mol/L) was calculated from these values. […] Regarding such interactions, KD values were calculated using the following 1:1 binding model described in BIACORE® T100 Software Handbook BR1006-48 Edition AE.
(§2) The behavior of interacting molecules according to the 1:1 binding model on BIACORE® can be described by Equation 1: Req=C·R max/(KD+C)+RI, wherein, Req is a plot of steady-state binding levels to analyte concentration. C is concentration, RI is bulk refractive index contribution in the sample, and Rmax is analyte binding capacity of the surface. When this equation is rearranged, KD can be expressed as Equation 2: KD=C·Rmax/(Req−RI)−C. KD can be calculated by substituting the values of Rmax, RI, and C into Equation 1 or Equation 2. From the current measurement conditions, RI=0, C=2 μmol/L can be used.

[3] = target: T3, cynomolgus monkey FcγRIIa2 extracellular domain, C-terminal His-tag (cynomolgus monkey); test: SPR (Biacore); KD of SG1 / KD of variant;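 note: relative to parent M103205H795-SG1 carrying the SG1 human heavy chain constant region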
T3 construct: also called cyno FcγRIIa2; cynoFcgRIIa2
T3 chain: T1 chain with I127K, K130N, P133H, R142Q
Procedure: as §1, §2

[4] = target: T4, cynomolgus monkey FcγRIIa3 extracellular domain, C-terminal His-tag (cynomolgus monkey); test: SPR (Biacore); KD of SG1 / KD of variant;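 note: relative to parent M103205H795-SG1 carrying the SG1 human heavy chain constant region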
T4 construct: also called cyno FcγRIIa3; cynoFcgRIIa3
T4 chain: T1 chain
Procedure: as §1, §2

[5] = target: T5, cynomolgus monkey FcγRIIb extracellular domain, C-terminal His-tag (cynomolgus monkey); test: SPR (Biacore); KD of SG1 / KD of variant;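 note: relative to parent M103205H795-SG1 carrying the SG1 human heavy chain constant region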
T5 construct: also called cyno FcγRIIb; cynoFcγRIIb
T5 chain: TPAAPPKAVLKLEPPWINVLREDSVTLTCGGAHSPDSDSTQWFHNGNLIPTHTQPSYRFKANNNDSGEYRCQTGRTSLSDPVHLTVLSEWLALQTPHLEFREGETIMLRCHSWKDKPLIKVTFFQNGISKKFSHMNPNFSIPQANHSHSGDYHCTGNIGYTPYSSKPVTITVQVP
Procedure: as §1, §2

[6] = target: T6, cynomolgus monkey FcγRIIIaS extracellular domain, C-terminal His-tag (cynomolgus monkey, UniProt Q8SPW2 21-206 at identity 1.00)); test: SPR (Biacore); KD of SG1 / KD of variant
T6 construct: also called cyno FcγRIIIaS; cynoFcγRIIIaS
T6 chain: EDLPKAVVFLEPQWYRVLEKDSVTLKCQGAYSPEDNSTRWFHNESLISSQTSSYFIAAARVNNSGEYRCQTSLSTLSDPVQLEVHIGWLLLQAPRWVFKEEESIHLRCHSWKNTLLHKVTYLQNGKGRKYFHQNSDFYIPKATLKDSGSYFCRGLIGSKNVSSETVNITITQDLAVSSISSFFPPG
Procedure: as §1, §2

[7] = target: T7, human FcγRIIaH extracellular domain, C-terminal His-tag (human, UniProt P12318 34-217); test: SPR (Biacore); KD of SG1 / KD of variant
T7 construct: also called human FcγRIIa (type H); FcgRIIaH
T7 sequence: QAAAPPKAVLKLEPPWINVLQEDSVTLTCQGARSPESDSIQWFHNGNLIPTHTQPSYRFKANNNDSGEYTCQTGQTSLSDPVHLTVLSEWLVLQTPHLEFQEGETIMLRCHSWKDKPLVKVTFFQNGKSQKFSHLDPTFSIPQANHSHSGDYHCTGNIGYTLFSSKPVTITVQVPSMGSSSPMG
Procedure: as §1, §2

[8] = target: T8, human FcγRIIb extracellular domain, C-terminal His-tag (human, UniProt P31994 43-217); test: SPR (Biacore); KD of SG1 / KD of variant
T8 construct: also called human FcgRIIb; FcgRIIb
T8 sequence: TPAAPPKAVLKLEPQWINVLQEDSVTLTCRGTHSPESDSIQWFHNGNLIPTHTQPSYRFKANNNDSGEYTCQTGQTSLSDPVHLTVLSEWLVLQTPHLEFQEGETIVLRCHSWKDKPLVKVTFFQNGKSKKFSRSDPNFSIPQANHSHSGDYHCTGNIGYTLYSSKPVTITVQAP
Procedure: as §1, §2

[9] = target: T9, human FcγRIIIaV extracellular domain, C-terminal His-tag (human, UniProt P08637 17-208); test: SPR (Biacore); KD of SG1 / KD of variant
T9 construct: also called human FcgRIIIaV; FcgRIIIaV
T9 sequence (P08637 17-208 F176V): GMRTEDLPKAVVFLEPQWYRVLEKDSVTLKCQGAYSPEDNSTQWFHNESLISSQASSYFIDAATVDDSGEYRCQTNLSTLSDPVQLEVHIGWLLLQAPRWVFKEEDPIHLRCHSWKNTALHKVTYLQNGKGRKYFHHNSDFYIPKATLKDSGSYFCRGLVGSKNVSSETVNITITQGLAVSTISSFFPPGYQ
Procedure: as §1, §2

B1: M103205H795-MY041/M103202L889-SK1 (antibody, human IgG1, kappa)
heavy: not shown
light: DIVMTQSPATLSLSPGERATLSCTSSQSVYHANWLSWFQQKPGQPPKLLIYWASTLAYGVPSRFSGSGSGTDFTLTISSLQPEDAATYYCAGGYGGGRYAFGQGTKVEIKRTVAAPSVFIFPPSDEQLKSGTASVVCLLNNFYPREAKVQWKVDNALQSGNSQESVTEQDSKDSTYSLSSTLTLSKADYEKHKVYACEVTHQGLSSPVTKSFNRGEC
notes: Substitution put into M103205H795-SG1
- Kd [1]: 7.4 µM

B2: MS_M103205H795-SG1/M103202L889-SK1 (antibody, human IgG1, kappa)
heavy: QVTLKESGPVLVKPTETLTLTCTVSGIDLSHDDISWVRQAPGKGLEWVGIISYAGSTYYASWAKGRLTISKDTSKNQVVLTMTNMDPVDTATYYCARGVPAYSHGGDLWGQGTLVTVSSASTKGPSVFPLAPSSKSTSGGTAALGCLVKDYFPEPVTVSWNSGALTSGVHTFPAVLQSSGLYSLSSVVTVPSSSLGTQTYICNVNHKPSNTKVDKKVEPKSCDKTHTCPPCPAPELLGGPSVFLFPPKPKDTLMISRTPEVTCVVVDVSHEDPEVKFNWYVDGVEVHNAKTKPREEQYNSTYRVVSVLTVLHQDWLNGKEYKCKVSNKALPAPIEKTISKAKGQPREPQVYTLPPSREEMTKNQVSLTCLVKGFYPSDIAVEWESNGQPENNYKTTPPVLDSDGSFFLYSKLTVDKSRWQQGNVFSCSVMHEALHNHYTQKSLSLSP
light: B1 light
notes: Parent of the Fc variants; also called MS1032LO06-SG1
- KD fold (SG1 = 1) [2]: 1 fold
- KD fold (SG1 = 1) [3]: 1 fold
- KD fold (SG1 = 1) [4]: 1 fold
- KD fold (SG1 = 1) [5]: 1 fold
- KD fold (SG1 = 1) [6]: 1 fold
- KD fold (SG1 = 1) [7]: 1 fold
- KD fold (SG1 = 1) [8]: 1 fold
- KD fold (SG1 = 1) [9]: 1 fold

B3: M103205H795-MY196/M103202L889-SK1 (antibody, human IgG1, kappa)
heavy: not shown
light: B1 light
notes: as for B1
- Kd [1]: 23 µM

B4: M103205H795-MY044/M103202L889-SK1 (antibody, human IgG1, kappa)
heavy: not shown
light: B1 light
notes: as for B1
- Kd [1]: 52 µM

B5: M103205H795-MY071/M103202L889-SK1 (antibody, human IgG1, kappa)
heavy: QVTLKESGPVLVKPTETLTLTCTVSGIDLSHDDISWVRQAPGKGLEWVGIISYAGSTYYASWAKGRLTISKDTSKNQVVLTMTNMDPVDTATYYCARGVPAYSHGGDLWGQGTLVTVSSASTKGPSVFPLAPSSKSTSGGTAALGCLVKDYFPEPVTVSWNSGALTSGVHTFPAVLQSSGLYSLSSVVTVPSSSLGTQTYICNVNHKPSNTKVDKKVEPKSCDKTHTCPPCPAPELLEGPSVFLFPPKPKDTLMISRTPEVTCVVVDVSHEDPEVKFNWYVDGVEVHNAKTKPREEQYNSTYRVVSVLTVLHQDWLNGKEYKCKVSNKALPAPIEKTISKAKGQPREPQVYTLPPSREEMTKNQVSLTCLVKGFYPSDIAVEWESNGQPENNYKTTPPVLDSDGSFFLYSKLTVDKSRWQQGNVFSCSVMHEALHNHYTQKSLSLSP
light: B1 light
notes: as for B1
- Kd [1]: 9.2 µM

B6: M103205H795-MY048/M103202L889-SK1 (antibody, human IgG1, kappa)
heavy: not shown
light: B1 light
notes: Substitutions introduced into M103205H795-SG1; expressed with M103202L889-SK1 as light chain
- KD fold (SG1 = 1) [2]: 2.3 fold
- KD fold (SG1 = 1) [3]: 3 fold
- KD fold (SG1 = 1) [4]: 2.4 fold
- KD fold (SG1 = 1) [5]: 2 fold
- KD fold (SG1 = 1) [6]: 0.07 fold
- KD fold (SG1 = 1) [7]: 0.6 fold
- KD fold (SG1 = 1) [8]: 1.4 fold
- KD fold (SG1 = 1) [9]: 0.07 fold

B7: M103205H795-MY063/M103202L889-SK1 (antibody, human IgG1, kappa)
heavy: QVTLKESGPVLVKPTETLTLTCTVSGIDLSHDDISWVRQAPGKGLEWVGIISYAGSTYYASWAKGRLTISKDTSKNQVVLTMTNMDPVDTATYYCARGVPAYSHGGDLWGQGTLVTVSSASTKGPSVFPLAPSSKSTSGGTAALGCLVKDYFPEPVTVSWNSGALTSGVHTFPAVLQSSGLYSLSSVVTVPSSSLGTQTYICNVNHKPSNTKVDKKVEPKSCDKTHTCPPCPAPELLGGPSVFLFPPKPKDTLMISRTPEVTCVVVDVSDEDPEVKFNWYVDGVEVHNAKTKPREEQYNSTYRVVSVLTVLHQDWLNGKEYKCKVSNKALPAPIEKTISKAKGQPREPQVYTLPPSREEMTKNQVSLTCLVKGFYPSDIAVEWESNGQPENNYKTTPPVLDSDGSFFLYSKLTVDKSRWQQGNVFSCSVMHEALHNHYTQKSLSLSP
light: B1 light
notes: as for B1
- Kd [1]: 2 µM

B8: M103205H795-MY065/M103202L889-SK1 (antibody, human IgG1, kappa)
heavy: not shown
light: B1 light
notes: as for B1
- Kd [1]: 4.2 µM

B9: M103205H795-MY124/M103202L889-SK1 (antibody, human IgG1, kappa)
heavy: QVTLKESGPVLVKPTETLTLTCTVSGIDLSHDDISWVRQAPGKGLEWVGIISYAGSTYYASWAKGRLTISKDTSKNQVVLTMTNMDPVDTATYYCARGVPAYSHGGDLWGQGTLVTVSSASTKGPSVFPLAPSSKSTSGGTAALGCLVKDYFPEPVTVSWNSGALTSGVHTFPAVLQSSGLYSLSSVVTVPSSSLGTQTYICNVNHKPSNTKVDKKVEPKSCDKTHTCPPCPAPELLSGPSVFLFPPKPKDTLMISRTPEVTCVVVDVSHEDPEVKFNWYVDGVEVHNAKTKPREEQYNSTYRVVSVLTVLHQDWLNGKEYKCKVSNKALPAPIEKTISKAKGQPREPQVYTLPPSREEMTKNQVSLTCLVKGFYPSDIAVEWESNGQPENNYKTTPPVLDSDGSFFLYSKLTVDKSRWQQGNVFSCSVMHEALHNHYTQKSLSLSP
light: B1 light
notes: as for B1
- Kd [1]: 12 µM

B10: M103205H795-MY048/M103202L889-SK1 (P271D) (antibody, human IgG1, kappa)
heavy: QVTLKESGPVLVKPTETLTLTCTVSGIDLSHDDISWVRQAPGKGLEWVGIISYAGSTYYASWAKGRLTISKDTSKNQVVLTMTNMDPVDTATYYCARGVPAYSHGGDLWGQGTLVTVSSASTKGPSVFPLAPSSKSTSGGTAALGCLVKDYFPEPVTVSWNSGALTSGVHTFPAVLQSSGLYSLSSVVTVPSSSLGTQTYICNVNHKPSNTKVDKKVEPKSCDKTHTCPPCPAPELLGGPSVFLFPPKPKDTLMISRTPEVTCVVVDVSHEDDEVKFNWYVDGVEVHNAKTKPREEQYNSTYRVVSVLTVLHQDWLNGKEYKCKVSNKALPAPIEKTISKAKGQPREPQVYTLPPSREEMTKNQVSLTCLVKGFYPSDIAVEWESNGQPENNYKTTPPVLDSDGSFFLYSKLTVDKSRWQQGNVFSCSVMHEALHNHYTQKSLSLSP
light: B1 light
notes: Here the P271D molecule is meant; Put into M103205H795-SG1
- Kd [1]: 4.4 µM

B11: M103205H795-MY064/M103202L889-SK1 (antibody, human IgG1, kappa)
heavy: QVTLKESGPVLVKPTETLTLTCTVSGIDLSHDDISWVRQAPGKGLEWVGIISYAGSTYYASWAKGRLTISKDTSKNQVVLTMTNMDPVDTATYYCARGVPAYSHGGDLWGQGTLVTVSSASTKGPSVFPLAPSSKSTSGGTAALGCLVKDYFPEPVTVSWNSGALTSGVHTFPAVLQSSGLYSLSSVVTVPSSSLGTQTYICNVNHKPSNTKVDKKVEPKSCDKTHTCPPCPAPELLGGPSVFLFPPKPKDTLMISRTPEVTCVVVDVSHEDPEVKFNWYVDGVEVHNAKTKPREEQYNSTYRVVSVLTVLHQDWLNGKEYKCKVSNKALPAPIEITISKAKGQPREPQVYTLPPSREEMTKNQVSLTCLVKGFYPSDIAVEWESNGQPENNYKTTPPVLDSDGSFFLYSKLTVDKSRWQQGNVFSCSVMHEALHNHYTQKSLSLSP
light: B1 light
notes: as for B1
- Kd [1]: 59 µM

B12: M103205H795-MY047/M103202L889-SK1 (antibody, human IgG1, kappa)
heavy: not shown
light: B1 light
notes: as for B6
- KD fold (SG1 = 1) [2]: 0.7 fold
- KD fold (SG1 = 1) [3]: 1.5 fold
- KD fold (SG1 = 1) [4]: 0.7 fold
- KD fold (SG1 = 1) [5]: 0.7 fold
- KD fold (SG1 = 1) [6]: 0.05 fold
- KD fold (SG1 = 1) [7]: 0.2 fold
- KD fold (SG1 = 1) [8]: 1.2 fold

B13: M103205H795-MY001/M103202L889-SK1 (antibody, human IgG1, kappa)
heavy: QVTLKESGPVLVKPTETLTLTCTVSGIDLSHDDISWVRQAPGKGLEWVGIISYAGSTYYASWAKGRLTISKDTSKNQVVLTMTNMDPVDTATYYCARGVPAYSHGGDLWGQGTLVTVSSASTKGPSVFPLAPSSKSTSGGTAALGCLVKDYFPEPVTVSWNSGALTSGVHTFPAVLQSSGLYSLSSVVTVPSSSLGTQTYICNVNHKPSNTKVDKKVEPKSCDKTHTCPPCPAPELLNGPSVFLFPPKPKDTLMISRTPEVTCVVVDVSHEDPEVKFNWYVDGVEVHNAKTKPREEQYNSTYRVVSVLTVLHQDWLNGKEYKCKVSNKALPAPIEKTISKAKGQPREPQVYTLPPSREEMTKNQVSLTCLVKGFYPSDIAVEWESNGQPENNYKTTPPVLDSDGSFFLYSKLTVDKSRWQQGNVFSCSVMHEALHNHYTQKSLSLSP
light: B1 light
notes: as for B6
- KD fold (SG1 = 1) [2]: 1.1 fold
- KD fold (SG1 = 1) [3]: 1.4 fold
- KD fold (SG1 = 1) [4]: 1.1 fold
- KD fold (SG1 = 1) [5]: 1 fold
- KD fold (SG1 = 1) [6]: 0.05 fold
- KD fold (SG1 = 1) [7]: 0.2 fold
- KD fold (SG1 = 1) [8]: 0.6 fold
- KD fold (SG1 = 1) [9]: 0.04 fold

B14: M103205H795-MY073/M103202L889-SK1 (antibody, human IgG1, kappa)
heavy: not shown
light: B1 light
notes: as for B1
- Kd [1]: 5.1 µM

B15: M103205H795-MY045/M103202L889-SK1 (antibody, human IgG1, kappa)
heavy: not shown
light: B1 light
notes: as for B1
- Kd [1]: 6.8 µM

B16: M103205H795-MY043/M103202L889-SK1 (antibody, human IgG1, kappa)
heavy: not shown
light: B1 light
notes: as for B1
- Kd [1]: 18 µM

B17: M103205H795-MY072/M103202L889-SK1 (antibody, human IgG1, kappa)
heavy: not shown
light: B1 light
notes: as for B1
- Kd [1]: 2.6 µM

B18: M103205H795-MY070/M103202L889-SK1 (antibody, human IgG1, kappa)
heavy: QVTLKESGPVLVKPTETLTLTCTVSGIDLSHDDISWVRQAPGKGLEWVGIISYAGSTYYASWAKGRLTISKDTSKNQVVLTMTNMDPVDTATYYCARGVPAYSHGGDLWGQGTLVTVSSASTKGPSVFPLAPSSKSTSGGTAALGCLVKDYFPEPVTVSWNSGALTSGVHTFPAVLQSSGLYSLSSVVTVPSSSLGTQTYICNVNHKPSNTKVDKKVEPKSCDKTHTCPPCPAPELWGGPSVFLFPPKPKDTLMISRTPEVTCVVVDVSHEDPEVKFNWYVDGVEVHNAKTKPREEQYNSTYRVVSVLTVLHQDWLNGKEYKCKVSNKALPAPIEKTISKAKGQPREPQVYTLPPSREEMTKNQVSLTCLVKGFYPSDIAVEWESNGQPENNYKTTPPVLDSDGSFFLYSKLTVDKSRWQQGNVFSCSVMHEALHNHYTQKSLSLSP
light: B1 light
notes: as for B1
- Kd [1]: 4.7 µM

B19: M103205H795-MY068/M103202L889-SK1 (antibody, human IgG1, kappa)
heavy: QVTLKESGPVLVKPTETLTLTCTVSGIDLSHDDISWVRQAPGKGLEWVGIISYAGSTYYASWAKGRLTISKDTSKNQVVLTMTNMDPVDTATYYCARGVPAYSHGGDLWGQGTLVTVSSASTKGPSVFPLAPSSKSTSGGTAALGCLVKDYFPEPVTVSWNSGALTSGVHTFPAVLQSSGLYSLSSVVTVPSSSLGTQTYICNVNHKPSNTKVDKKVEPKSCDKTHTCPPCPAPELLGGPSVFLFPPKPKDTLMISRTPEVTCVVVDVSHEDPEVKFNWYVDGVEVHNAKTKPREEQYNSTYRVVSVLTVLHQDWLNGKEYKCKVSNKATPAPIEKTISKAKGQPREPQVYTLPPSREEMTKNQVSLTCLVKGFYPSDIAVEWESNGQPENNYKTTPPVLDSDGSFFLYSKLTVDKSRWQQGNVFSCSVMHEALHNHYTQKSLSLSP
light: B1 light
notes: as for B1
- Kd [1]: 5.7 µM

B20: M103205H795-MY069/M103202L889-SK1 (antibody, human IgG1, kappa)
heavy: not shown
light: B1 light
notes: as for B1
- Kd [1]: 6.5 µM

B21: M103205H795-MY049/M103202L889-SK1 (antibody, human IgG1, kappa)
heavy: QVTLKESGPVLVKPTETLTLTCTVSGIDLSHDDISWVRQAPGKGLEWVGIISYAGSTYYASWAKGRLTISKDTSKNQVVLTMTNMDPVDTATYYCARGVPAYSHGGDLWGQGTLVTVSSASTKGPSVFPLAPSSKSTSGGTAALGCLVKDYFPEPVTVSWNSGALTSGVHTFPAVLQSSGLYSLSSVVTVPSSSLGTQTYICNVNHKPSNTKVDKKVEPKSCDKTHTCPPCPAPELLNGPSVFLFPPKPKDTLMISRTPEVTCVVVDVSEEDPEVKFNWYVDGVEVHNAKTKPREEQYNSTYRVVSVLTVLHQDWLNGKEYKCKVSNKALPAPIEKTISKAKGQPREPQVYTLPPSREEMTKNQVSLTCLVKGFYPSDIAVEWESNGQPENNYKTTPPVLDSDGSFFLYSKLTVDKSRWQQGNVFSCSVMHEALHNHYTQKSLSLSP
light: B1 light
notes: as for B6
- KD fold (SG1 = 1) [2]: 1.2 fold
- KD fold (SG1 = 1) [3]: 2.2 fold
- KD fold (SG1 = 1) [4]: 2.6 fold
- KD fold (SG1 = 1) [5]: 2.1 fold
- KD fold (SG1 = 1) [6]: 0.08 fold
- KD fold (SG1 = 1) [7]: 0.4 fold
- KD fold (SG1 = 1) [8]: 3.1 fold
- KD fold (SG1 = 1) [9]: 0.1 fold
